# Laboratory results taken from paper PMC3991583 (Nature, 2014).
# Read-outs that look alike come from different tables or passages of the source.
# T1: AddA subunit of the nuclease-dead AddAB mutant (AddA D1172A) (UniProt P23478 1-1232, D1172A)
# T1 sequence: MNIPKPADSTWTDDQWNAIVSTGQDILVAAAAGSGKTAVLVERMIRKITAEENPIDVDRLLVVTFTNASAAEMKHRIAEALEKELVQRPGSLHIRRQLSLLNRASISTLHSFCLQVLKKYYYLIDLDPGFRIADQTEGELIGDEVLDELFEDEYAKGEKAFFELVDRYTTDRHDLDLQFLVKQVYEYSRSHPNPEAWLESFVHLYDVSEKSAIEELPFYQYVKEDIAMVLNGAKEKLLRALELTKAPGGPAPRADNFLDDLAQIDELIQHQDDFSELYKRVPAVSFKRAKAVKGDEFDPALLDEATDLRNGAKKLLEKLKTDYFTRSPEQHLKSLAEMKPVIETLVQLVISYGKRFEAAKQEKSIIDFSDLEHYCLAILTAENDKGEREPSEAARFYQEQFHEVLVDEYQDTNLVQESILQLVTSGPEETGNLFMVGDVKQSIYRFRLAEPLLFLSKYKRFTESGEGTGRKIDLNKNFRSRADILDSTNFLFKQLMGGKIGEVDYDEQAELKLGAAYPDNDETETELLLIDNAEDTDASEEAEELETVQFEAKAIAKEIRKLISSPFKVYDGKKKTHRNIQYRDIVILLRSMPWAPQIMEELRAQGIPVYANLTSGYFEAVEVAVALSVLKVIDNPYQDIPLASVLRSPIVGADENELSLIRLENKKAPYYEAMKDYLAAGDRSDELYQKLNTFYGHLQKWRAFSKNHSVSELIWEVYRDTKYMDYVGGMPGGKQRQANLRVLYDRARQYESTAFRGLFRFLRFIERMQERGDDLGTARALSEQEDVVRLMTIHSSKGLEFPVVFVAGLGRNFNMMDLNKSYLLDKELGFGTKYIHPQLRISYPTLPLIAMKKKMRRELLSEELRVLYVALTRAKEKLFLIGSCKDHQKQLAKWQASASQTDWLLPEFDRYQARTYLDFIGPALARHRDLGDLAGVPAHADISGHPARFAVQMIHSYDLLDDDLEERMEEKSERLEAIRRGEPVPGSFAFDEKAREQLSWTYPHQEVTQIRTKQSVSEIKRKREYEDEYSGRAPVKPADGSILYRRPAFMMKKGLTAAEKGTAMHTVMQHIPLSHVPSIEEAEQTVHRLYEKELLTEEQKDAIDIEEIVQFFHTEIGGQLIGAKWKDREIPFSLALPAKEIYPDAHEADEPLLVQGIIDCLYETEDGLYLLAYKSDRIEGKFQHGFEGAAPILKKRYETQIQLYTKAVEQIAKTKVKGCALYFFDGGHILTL
# Tests used:
# Test in all cases: crystal structure
# [1] = biological target: T1, AddA subunit of the nuclease-dead AddAB …
# [2] = biological target: T2, AddA (nuclease-dead);AddB (nuclease-dead) (Bacillus subtilis?;Bacillus subtilis?, UniProt P23478;P23477 1-1232;1-1166, D1172A|D961A)
# [3] = biological target: T2, AddA (nuclease-dead);AddB …; remark: listed apart in the source
binder,measurement,setting,value
AddB subunit of the nuclease-dead AddAB mutant (AddB D961A) (enzyme) MGAEFLVGRSGSGKTKLIINSIQDELRRAPFGKPIIFLVPDQMTFLMEYELAKTPDMGGMIRAQVFSFSRLAWRVLQHTGGMSRPFLTSTGVQMLLRKLIEEHKQEFKVYQKASDKSGFTAQVERMLTEFKRYCLEPEDIRRMAESGTASEYRGERVLSEKLHDLSILYQQMEKSLADQYLHSEDYLTLLAEHIPLAEDIKGAHIYVDGFYQFTPQEFRVLEQLMVHAEHITFSLTADKPSYEREPHELELFRMTGKTYYRLHQKAKELNLDITYKELSGTERHTKTPELAHLEAQYEARPAIPYAEKQEALTVMQAANRRAELEGIAREIHALVREKGYRYKDVAILARQPEDYKDMVKEVFADYEIPYFIDGKASMLNHPLIEFIRSSLDVLKGNWRYEAVFRCVKTELLFPLNEPKAKVREQVDQLENYCIAYGIKGDRWTKGDRFQYRRFVSLDDDFAQTDQEIEMENMLNDTRDWIVPPLFQLQKRMKKAKTVQEKAEALYRYLEETDVPLKLDQERQRAEDDGRIIEAQQHQQAWDAVIQLLEEFVEMMGDDEISLDLFQQMIEAGAESLTFSLIPPALDQVFVGNMDLSRMYGTSCTFVLGANDGVLPARPDENGVLSDDDREWLKTIGVELSSGGRERLLDEHFLIYMAFSSPSDRLYVSYPIADAEGKTLLPSMIVKRLEELFPHHKERLLTNEPEQVSDEEQLMYVVNKSVAQSFTASQLRLWTREYDISDVWWSTYNVLMSEQDRLQSKKLFSSLFFRNEVKQLERSVSRQLYGERIQGSVSRMETFNACPFSHFASHGLHLKERQFFKLEAPDIGQLFHSSLKLISDRLREQKLDWRDLTKEQCELFSYDAVERLAPKLQKEILLSSNRHYYVKEKLQKIVTRVSGILSEHAKASGFVPIGLELGFGGKGPLPPLTFQLKNGCTMELVGRIDRVDKAESSKGLLLRIVAYKSSDKGLDLAEVYYGLALQMLTYLDLSITHSADWLGMRATPAGVLYFHIHDPMIQSNLPLGLDEIEQEIFKKFKMKGLLLGDQEVVRLMDTTLQEGRSNIINAGLKKDGSLRSDSAAVGEKEFDLLTKHVRRTFQEAGEQITDGRVSIEPYKMKNKTPCTYCAFKSVCQFDESLEENEYRPLKAEKDKTILEWIKKEADGNEHS,binding result,[1],binds
"oligo 027 (Chi, 7 T spacer, TTTT 3' extension) (structured_DNA) DNA: TTTTTTTCTAATGCGAGCACTGCTATTCCCTAGCAGTGCTCGCATTAGATTTTGTTTTTTTAGCGGTTTT",binding result,[2],binds
"oligo 023 (Chi, 6 T spacer) (structured_DNA) DNA: TTTTTTTCTAATGCGAGCACTGCTATTCCCTAGCAGTGCTCGCATTAGATTTTGTTTTTTAGCGG",binding result,[3],binds
